Experiment [1] concerns the target T1, IL5R-His, Interleukin-5 receptor subunit alpha (Homo sapiens) aa 22-342 (Homo sapiens, UniProt Q01344 22-342).
T1 construct: not shown: His tag as the name implies
T1 sequence (looked up): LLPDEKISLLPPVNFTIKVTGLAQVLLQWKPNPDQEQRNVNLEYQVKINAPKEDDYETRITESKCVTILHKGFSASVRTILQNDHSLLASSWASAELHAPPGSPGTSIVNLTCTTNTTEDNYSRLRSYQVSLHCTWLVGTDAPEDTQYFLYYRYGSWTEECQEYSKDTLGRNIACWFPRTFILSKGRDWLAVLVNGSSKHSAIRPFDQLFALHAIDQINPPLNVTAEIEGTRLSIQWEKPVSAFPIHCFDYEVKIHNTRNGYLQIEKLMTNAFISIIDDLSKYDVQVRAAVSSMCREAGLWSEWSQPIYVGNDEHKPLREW
Put plainly: BLI Octet RED 384; antibody on ProA sensor, antigen 30 ug/ml (757.6 nM); response at end of association. On the procedure:
(§1) Experimental study of nonspecific binding of bispecific chimeric antibodies to non-target antigens was performed on Forte Bio Octert RED 384. Protein A (ProA) biosensors (ForteBio) were immersed into a solution containing antibodies at a concentration of 10 μg/ml for 150 seconds to immobilize same. The baseline was recorded in a 1×KB solution for 30 seconds. The antibody-loaded sensors were then immersed into wells containing non-target antigens at a concentration of 30 μg/ml for 150 seconds. Complex dissociation was then recorded for 30 seconds.
(§2) The reference sensors went through all the steps as the sensors used to record analyte sensograms did, with the exception of the association step—at the association step, the sensors were immersed in a kinetic buffer solution without analyte (the reference sensor signals were measured in parallel with the recording of the main sensograms). The reference signal was subtracted from the signal received on sensors interacting with the analyte during the processing of sensograms.
(§3) Sensograms were processed using ForteBio Octet Data Analysisn 9.0 software. To report no non-specific interaction, the recorded signal level was checked at the end of the association step (the response parameter).

In experiment [2] the target is T2, Macaca CSF1R_C-His, Macrophage colony-stimulating factor 1 receptor (Macaca mulatta) aa 20-513 (Macaca mulatta).
T2 construct: range 20-513
Put plainly: BLI Octet RED 384; antibody on ProA sensor, antigen 30 ug/ml (534.8 nM); response at end of association. The protocol: as §1, §2, §3
For orientation: In BLI a coated tip is dipped into the sample, and binding shifts an interference pattern.

Experiment [3] deals with T3, extracellular domain of the human CSF1R protein (hCSF1R_His) (Homo sapiens, UniProt P07333 20-512).
T3 construct: range 20-512; Molecular weight 57.4 kDa; made in CHO cells; also called hCSF1_His; not shown: C-terminal His and FLAG tags
T3 sequence (P07333 20-512 limits assumed): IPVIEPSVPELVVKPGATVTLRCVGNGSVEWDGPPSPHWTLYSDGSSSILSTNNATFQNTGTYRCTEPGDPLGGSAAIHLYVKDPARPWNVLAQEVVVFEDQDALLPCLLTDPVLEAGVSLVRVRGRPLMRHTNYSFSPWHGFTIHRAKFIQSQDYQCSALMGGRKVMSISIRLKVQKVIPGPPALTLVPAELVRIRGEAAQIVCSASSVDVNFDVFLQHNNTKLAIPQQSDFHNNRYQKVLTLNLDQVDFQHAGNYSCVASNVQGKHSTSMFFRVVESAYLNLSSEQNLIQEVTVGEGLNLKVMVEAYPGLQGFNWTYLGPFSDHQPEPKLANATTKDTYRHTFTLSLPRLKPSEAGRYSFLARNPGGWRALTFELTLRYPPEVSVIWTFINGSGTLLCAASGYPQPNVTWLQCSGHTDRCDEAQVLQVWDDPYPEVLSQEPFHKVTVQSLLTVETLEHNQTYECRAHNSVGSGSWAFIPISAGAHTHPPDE
Put plainly: BLI Octet RED 384; antibody on ProA sensor, antigen 30 ug/ml (522.5 nM); response at end of association. The protocol:
as §1, §2, §3

For experiment [4], the target named is T4, extracellular domain of the human PD-1 protein (hPD1ex-H6F) (Homo sapiens, UniProt Q15116 21-170).
T4 construct: Molecular weight 20.6 kDa; made in CHO cells; also called hPDlex-H6F; not shown: C-terminal His and FLAG tags
T4 sequence (Q15116 21-170 limits assumed, form in doubt): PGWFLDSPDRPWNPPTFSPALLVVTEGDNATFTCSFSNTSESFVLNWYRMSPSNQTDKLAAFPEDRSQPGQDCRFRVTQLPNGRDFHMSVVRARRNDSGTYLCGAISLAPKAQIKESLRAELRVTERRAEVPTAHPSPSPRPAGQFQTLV
Put plainly: BLI Octet RED 384; antibody on ProA sensor, antigen 30 ug/ml (1456 nM); response at end of association. The protocol: as §1, §2, §3

Experiment [5] has as its target T5, hAng2_H6F, Angiopoietin-2 (Homo sapiens) aa 19-496 (Homo sapiens, UniProt O15123 19-496).
T5 construct: also called hAng-H6F; not shown: His and FLAG tags implied by the name 'H6F'
T5 sequence: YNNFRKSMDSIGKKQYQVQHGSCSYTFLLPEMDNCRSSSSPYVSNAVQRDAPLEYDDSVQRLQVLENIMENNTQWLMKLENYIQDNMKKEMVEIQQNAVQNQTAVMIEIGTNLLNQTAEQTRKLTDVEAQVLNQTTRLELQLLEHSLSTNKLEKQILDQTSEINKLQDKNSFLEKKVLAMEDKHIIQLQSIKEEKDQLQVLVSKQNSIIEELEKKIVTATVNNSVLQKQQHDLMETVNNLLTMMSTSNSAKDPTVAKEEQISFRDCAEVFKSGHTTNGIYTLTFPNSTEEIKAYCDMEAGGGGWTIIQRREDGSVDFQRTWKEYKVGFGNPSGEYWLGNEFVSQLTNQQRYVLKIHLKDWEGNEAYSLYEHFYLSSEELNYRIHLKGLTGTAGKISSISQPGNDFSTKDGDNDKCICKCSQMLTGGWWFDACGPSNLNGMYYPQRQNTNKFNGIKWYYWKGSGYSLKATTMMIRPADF
Put plainly: BLI Octet RED 384; antibody on ProA sensor, antigen 30 ug/ml (510.2 nM); response at end of association. The protocol: as §1, §2, §3

For experiment [6], the target named is T6, C-Avi-His-TEVs-HSA_hBCMA, Tumor necrosis factor receptor superfamily member 17 (Homo sapiens) aa 1-54 (Homo sapiens, UniProt Q02223 1-54).
T6 construct: range 1-54; not shown: Avi, His, TEV site and HSA parts as the name implies
T6 sequence (looked up): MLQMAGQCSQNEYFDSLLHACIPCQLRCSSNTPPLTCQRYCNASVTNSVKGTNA
Put plainly: BLI Octet RED 384; antibody on ProA sensor, antigen 30 ug/ml (391.2 nM); response at end of association. On the procedure: as §1, §2, §3

Experiment [7] has as its target T7, Her3-H6F, Receptor tyrosine-protein kinase erbB-3 (Homo sapiens) aa 21-643 (Homo sapiens, UniProt P21860 21-643).
T7 construct: not shown: His and FLAG tags implied by the name 'H6F'
Put plainly: BLI Octet RED 384; antibody on ProA sensor, antigen 30 ug/ml (420.8 nM); response at end of association. On the procedure:
as §1, §2, §3

The target in experiment [8] is T8, hisOX40, Tumor necrosis factor receptor superfamily member 4 (Homo sapiens) aa 26-210 (Homo sapiens, UniProt P43489 26-210).
T8 construct: range 26-210; The tag is put first only because the name begins with His; not shown: His tag as the name implies
T8 sequence (looked up): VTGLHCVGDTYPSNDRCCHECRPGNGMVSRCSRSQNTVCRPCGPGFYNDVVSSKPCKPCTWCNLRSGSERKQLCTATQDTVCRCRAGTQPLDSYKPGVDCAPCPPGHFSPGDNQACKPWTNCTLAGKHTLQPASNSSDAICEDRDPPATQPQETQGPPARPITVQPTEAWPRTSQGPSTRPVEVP
Put plainly: BLI Octet RED 384; antibody on ProA sensor, antigen 30 ug/ml (1310 nM); response at end of association. On the procedure:
as §1, §2, §3

T7 sequence (P21860 21-643 limits assumed): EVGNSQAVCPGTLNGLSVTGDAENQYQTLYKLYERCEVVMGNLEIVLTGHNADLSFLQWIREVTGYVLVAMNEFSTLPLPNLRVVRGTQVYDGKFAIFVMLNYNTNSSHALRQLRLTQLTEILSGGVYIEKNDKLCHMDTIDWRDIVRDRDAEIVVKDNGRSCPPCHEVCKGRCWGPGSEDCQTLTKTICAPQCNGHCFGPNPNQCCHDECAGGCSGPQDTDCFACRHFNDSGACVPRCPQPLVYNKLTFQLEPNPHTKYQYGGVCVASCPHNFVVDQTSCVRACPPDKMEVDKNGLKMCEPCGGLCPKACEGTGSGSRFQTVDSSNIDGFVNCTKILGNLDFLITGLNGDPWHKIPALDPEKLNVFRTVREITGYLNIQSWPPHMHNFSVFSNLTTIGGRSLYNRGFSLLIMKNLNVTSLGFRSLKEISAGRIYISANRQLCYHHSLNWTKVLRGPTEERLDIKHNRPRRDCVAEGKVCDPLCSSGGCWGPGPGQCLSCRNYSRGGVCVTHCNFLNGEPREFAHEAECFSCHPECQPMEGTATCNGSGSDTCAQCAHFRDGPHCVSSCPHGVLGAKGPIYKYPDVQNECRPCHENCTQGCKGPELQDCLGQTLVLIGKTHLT

B1: 02-007, bivalent bispecific chimeric antibody that specifically binds to PD1 and CSF1R (bispecific antibody, human IgG1, kappa, L234A L235A)
heavy 1: QVQLVESGGGLVRPGGSLRLSCAASEFTFDDYAMSWVRQAPGKGLEWVSAISWNGGSTNYADSVKGRFTISRDNAKNSLYLQMNSLRAEDTALYYCASTVEVAHRRLYKYLEVWGQGTLVTVSSASTKGPSVFPLAPSSKSTSGGTAALGCLVKDYFPEPVTVSWNSGALTSGVHTFPAVLQSSGLYSLSSVVTVPSSSLGTQTYICNVNHKPSNTKVDKRVEPKSCDKTHTCPPCPAPEAAGGPSVFLFPPKPKDTLYITREPEVTCVVVDVSHEDPEVKFNWYVDGVEVHNAKTKPREEQYNSTYRVVSVLTVLHQDWLNGKEYKCKVSNKALPAPIEKTISKAKGQPREPQVCTLPPSRDELTKNQVSLSCAVKGFYPSDIAVEWESNGQPENNYKTTPPVLDSDGSFFLVSKLTVDKSRWQQGNVFSCSVMHEALHNHYTQKSLSLSPGK
light 1: QAGLTQPPSVSVAPGQTARITCGGNNIGSKSVHWYQQKPGQAPVLVVYGDSDRPSGIPERFSGSNSGNTATLTISRVEAGDEADYYCQVWDISSDHVVFGGGTQLTVLRTVAAPSVFIFPPSDEQLKSGTASVVCLLNNFYPREAKVQWKVDNALQSGNSQESVTEQDSKDSTYSLSSTLTLSKADYEKHKVYACEVTHQGLSSPVTKSFNRGEC
heavy 2: not shown
light 2: QPVLTQPLSVSVALGQTARITCGGNNIGSKNVHWYQQKPGQAPVLVIYRDSNRPSGIPERFSGSNSGNTATLTISRAQAGDEADYYCQVWDSSTAVFGTGTKLTVLQQRQVKPEAWLSSGPSPGPGRLQLVCHVSGFYPKPVWVMWMRGEQEQQGTQLGDILPNANWTWYLRATLDVADGEAAGLSCRVKHSSLEGQDIILYWRGSC
notes: Produced in CHO cells
On to B1, for which the “Signal level (nm)” value in experiment [1] is 0.0221 nm; in experiment [2], 0.535 nm; in experiment [3], 0.537 nm; in experiment [4] it was 0.172 nm; in experiment [5], -0.0079 nm; in experiment [6] it was 0.0061 nm. Also, the “Signal level (nm)” value is -0.0063 nm in experiment [7] and -0.0056 nm in experiment [8].

B2: 02-006, bivalent bispecific chimeric antibody that specifically binds to PD1 and CSF1R (bispecific antibody, human IgG1, kappa, L234A L235A)
heavy 1: QVQLVQSGGGLVQPGGSLRLSCAASGFTFSSYWMYWVRQVPGKGLEWVSAIDTGGGRTYYADSVKGRFAISRVNAKNTMYLQMNSLRAEDTAVYYCARDEGGGTGWGVLKDWPYGLDAWGQGTLVTVSSASTKGPSVFPLAPSSKSTSGGTAALGCLVKDYFPEPVTVSWNSGALTSGVHTFPAVLQSSGLYSLSSVVTVPSSSLGTQTYICNVNHKPSNTKVDKRVEPKSCDKTHTCPPCPAPEAAGGPSVFLFPPKPKDTLYITREPEVTCVVVDVSHEDPEVKFNWYVDGVEVHNAKTKPREEQYNSTYRVVSVLTVLHQDWLNGKEYKCKVSNKALPAPIEKTISKAKGQPREPQVCTLPPSRDELTKNQVSLSCAVKGFYPSDIAVEWESNGQPENNYKTTPPVLDSDGSFFLVSKLTVDKSRWQQGNVFSCSVMHEALHNHYTQKSLSLSPGK
light 1: QPVLTQPLSVSVALGQTARITCGGNNIGSKNVHWYQQKPGQAPVLVIYRDSNRPSGIPERFSGSNSGNTATLTISRAQAGDEADYYCQVWDSSTAVFGTGTKLTVLQRTVAAPSVFIFPPSDEQLKSGTASVVCLLNNFYPREAKVQWKVDNALQSGNSQESVTEQDSKDSTYSLSSTLTLSKADYEKHKVYACEVTHQGLSSPVTKSFNRGEC
heavy 2: not shown
light 2: QAGLTQPPSVSVAPGQTARITCGGNNIGSKSVHWYQQKPGQAPVLVVYGDSDRPSGIPERFSGSNSGNTATLTISRVEAGDEADYYCQVWDISSDHVVFGGGTQLTVLQRQVKPEAWLSSGPSPGPGRLQLVCHVSGFYPKPVWVMWMRGEQEQQGTQLGDILPNANWTWYLRATLDVADGEAAGLSCRVKHSSLEGQDIILYWRGSC
notes: Produced in CHO cells
For B2, the “Signal level (nm)” value was 0.0153 nm in experiment [1]; 0.587 nm in experiment [2]; 0.573 nm in experiment [3]; 0.144 nm in experiment [4]; -0.0239 nm in experiment [5]; 0.0009 nm in experiment [6]. Also, the “Signal level (nm)” value is -0.0115 nm in experiment [7] and -0.0094 nm in experiment [8].

B3: 02-008, bivalent bispecific chimeric antibody that specifically binds to CD20 and CSF1R (bispecific antibody, human IgG1, kappa, L234A L235A)
heavy 1: EVQLVESGGGLVQPGGSLRLSCAASGYTFTSYNMHWVRQAPGKGLEWVGAIYPGNGDTSYNQKFKGRFTISVDKSKNTLYLQMNSLRAEDTAVYYCARVVYYSNSYWYFDVWGQGTLVTVSSASTKGPSVFPLAPSSKSTSGGTAALGCLVKDYFPEPVTVSWNSGALTSGVHTFPAVLQSSGLYSLSSVVTVPSSSLGTQTYICNVNHKPSNTKVDKRVEPKSCDKTHTCPPCPAPEAAGGPSVFLFPPKPKDTLYITREPEVTCVVVDVSHEDPEVKFNWYVDGVEVHNAKTKPREEQYNSTYRVVSVLTVLHQDWLNGKEYKCKVSNKALPAPIEKTISKAKGQPREPQVCTLPPSRDELTKNQVSLSCAVKGFYPSDIAVEWESNGQPENNYKTTPPVLDSDGSFFLVSKLTVDKSRWQQGNVFSCSVMHEALHNHYTQKSLSLSPGK
light 1: DIQMTQSPSSLSASVGDRVTITCRASSSVSYMHWYQQKPGKAPKPLIYAPSNLASGVPSRFSGSGSGTDFTLTISSLQPEDFATYYCQQWSFNPPTFGQGTKVEIKRTVAAPSVFIFPPSDEQLKSGTASVVCLLNNFYPREAKVQWKVDNALQSGNSQESVTEQDSKDSTYSLSSTLTLSKADYEKHKVYACEVTHQGLSSPVTKSFNRGEC
heavy 2: not shown
light 2: QAGLTQPPSVSVAPGQTARITCGGNNIGSKSVHWYQQKPGQAPVLVVYGDSDRPSGIPERFSGSNSGNTATLTISRVEAGDEADYYCQVWDISSDHVVFGGGTQLTVLQRQVKPEAWLSSGPSPGPGRLQLVCHVSGFYPKPVWVMWMRGEQEQQGTQLGDILPNANWTWYLRATLDVADGEAAGLSCRVKHSSLEGQDIILYWRGSC
notes: Produced in CHO cells
Regarding B3, the “Signal level (nm)” value was 0.0098 nm in experiment [1]; 0.549 nm in experiment [2]; 0.548 nm in experiment [3]; -0.0033 nm in experiment [4]; -0.0124 nm in experiment [5]; -0.0023 nm in experiment [6]. Besides, the results for the “Signal level (nm)” value in experiment [7] and in experiment [8] were -0.0108 nm and -0.012 nm, respectively.

These data come from patent US20250340613A1 (JOINT STOCK COMPANY BIOCAD, published 2025).
